This note sets out measurements from the supplement of paper PMC9112550, “Optimization of the antimicrobial peptide Bac7 by deep mutational scanning” (BMC Biology, 2022).

In this data set the test system is Escherichia coli TOP10. Briefly: shrunken log2 fold change of peptide-encoding DNA abundance (4.5 h post-induction vs induction); higher = less antimicrobial activity (less host growth inhibition). The following applies: time post-induction: 4.5 h; library: site-saturation at positions 5, 18, 19, 20.
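Further: peptides expressed intracellularly from a pBAD plasmid library in pooled LB shake-flask culture, induced with 0.3% L-arabinose, DNA abundance read by NGS, three biological replicates, DESeq2 with apeglm shrinkage.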

For RRIRHRPPRLPRPRPRPFREPRP, the “shrunken log2 fold change” value was -0.0591.
RRIRDRPPRLPRPRPRPVTMPRP: the “shrunken log2 fold change” value is -0.228.
For RRIRRRPPRLPRPRPRPASKPRP, the “shrunken log2 fold change” value was determined as 0.276.
On to RRIRWRPPRLPRPRPRPSCAPRP, for which the “shrunken log2 fold change” value came to 0.145.
On to RRIRNRPPRLPRPRPRPAYYPRP, for which the “shrunken log2 fold change” value was -0.0433.
For the sequence RRIRWRPPRLPRPRPRPHRGPRP, the “shrunken log2 fold change” value is -0.0412.
To RRIRNRPPRLPRPRPRPFCDPRP belongs -0.133; to RRIRWRPPRLPRPRPRPCAHPRP, -0.107.
In the case of RRIRLRPPRLPRPRPRPYMPPRP, the “shrunken log2 fold change” value was -0.509.
For the sequence RRIRTRPPRLPRPRPRPWVYPRP, the “shrunken log2 fold change” value was -0.294.
As to RRIRWRPPRLPRPRPRPDWMPRP, the “shrunken log2 fold change” value was determined as 0.212.
Turning to RRIRARPPRLPRPRPRPTEEPRP, the “shrunken log2 fold change” value was -0.082.
As for RRIRERPPRLPRPRPRPKNCPRP, the “shrunken log2 fold change” value is -0.0945.
As for RRIRNRPPRLPRPRPRPPDYPRP, the “shrunken log2 fold change” value is -0.077.
With RRIRWRPPRLPRPRPRPGHIPRP, the “shrunken log2 fold change” value was -0.0732.
For RRIRFRPPRLPRPRPRPCCWPRP, the “shrunken log2 fold change” value came to 0.148.
Consider RRIRPRPPRLPRPRPRPFGTPRP, for which the “shrunken log2 fold change” value is -0.444.
With RRIRRRPPRLPRPRPRPYLNPRP, the “shrunken log2 fold change” value was -1.13.
With RRIRQRPPRLPRPRPRPTWMPRP, the “shrunken log2 fold change” value was -0.262.
Consider RRIRARPPRLPRPRPRPIIKPRP, for which the “shrunken log2 fold change” value was -0.09.
Regarding RRIRKRPPRLPRPRPRPSSEPRP, the “shrunken log2 fold change” value turned out to be 0.2.
Regarding RRIRVRPPRLPRPRPRPPEVPRP, the “shrunken log2 fold change” value stood at 0.0599.
In the case of RRIRVRPPRLPRPRPRPPSIPRP, the “shrunken log2 fold change” value turned out to be 0.231.
With RRIRPRPPRLPRPRPRPGIQPRP, the “shrunken log2 fold change” value is -0.214.
RRIRPRPPRLPRPRPRPYDFPRP: the “shrunken log2 fold change” value was -0.194.
In the case of RRIRNRPPRLPRPRPRPVYEPRP, the “shrunken log2 fold change” value is -0.027.
Under RRIRDRPPRLPRPRPRPSVQPRP stands 0.111; under RRIRPRPPRLPRPRPRPCMRPRP, -0.239.
As to RRIRPRPPRLPRPRPRPHNIPRP, the “shrunken log2 fold change” value was -0.546.
Under RRIRERPPRLPRPRPRPHPYPRP stands -0.103; under RRIRVRPPRLPRPRPRPCVFPRP, -0.00495; under RRIRHRPPRLPRPRPRPYMLPRP, -1.66.
Regarding RRIRGRPPRLPRPRPRPPSPPRP, the “shrunken log2 fold change” value stood at 1.01.
Turning to RRIRCRPPRLPRPRPRPHAWPRP, the “shrunken log2 fold change” value was -0.245.
Regarding RRIRTRPPRLPRPRPRPKFWPRP, the “shrunken log2 fold change” value turned out to be 0.318.
As for RRIRFRPPRLPRPRPRPPMPPRP, the “shrunken log2 fold change” value was determined as 0.568.
To RRIRARPPRLPRPRPRPASPPRP belongs 0.499; to RRIRFRPPRLPRPRPRPNQLPRP, -1.2; to RRIRFRPPRLPRPRPRPSVTPRP, -0.322.
For the sequence RRIRPRPPRLPRPRPRPKNRPRP, the “shrunken log2 fold change” value was 0.00526.
Consider RRIRPRPPRLPRPRPRPCQPPRP, for which the “shrunken log2 fold change” value was -0.0774.
In the case of RRIRFRPPRLPRPRPRPQMWPRP, the “shrunken log2 fold change” value was -0.0128.
Regarding RRIRSRPPRLPRPRPRPCEWPRP, the “shrunken log2 fold change” value was determined as 0.0266.
Under RRIRIRPPRLPRPRPRPAVMPRP stands -0.129; under RRIRPRPPRLPRPRPRPLSTPRP, -0.0907.
To RRIRRRPPRLPRPRPRPKDLPRP belongs -0.0233; to RRIRPRPPRLPRPRPRPHGYPRP, -0.0483.
As for RRIRARPPRLPRPRPRPPSIPRP, the “shrunken log2 fold change” value was -0.108.
As to RRIRHRPPRLPRPRPRPMHLPRP, the “shrunken log2 fold change” value was 0.0317.
For RRIRGRPPRLPRPRPRPNSGPRP, the “shrunken log2 fold change” value came out at 0.00625.
Consider RRIRFRPPRLPRPRPRPATVPRP, for which the “shrunken log2 fold change” value came to 0.00554.
In the case of RRIRPRPPRLPRPRPRPEIDPRP, the “shrunken log2 fold change” value was -0.0829.
For RRIRMRPPRLPRPRPRPAWRPRP, the “shrunken log2 fold change” value turned out to be 0.533.
Consider RRIRDRPPRLPRPRPRPRCIPRP, for which the “shrunken log2 fold change” value was -0.0108.
For the sequence RRIRCRPPRLPRPRPRPREPPRP, the “shrunken log2 fold change” value stood at 0.211.
Consider RRIRGRPPRLPRPRPRPMARPRP, for which the “shrunken log2 fold change” value worked out at 0.318.
In the case of RRIRERPPRLPRPRPRPQRRPRP, the “shrunken log2 fold change” value was -0.0022.
On to RRIRQRPPRLPRPRPRPGDKPRP, for which the “shrunken log2 fold change” value is -0.187.
Under RRIRPRPPRLPRPRPRPSFLPRP stands -0.271; under RRIRFRPPRLPRPRPRPMHRPRP, -0.0791.
As for RRIRQRPPRLPRPRPRPESSPRP, the “shrunken log2 fold change” value was -0.0458.
Under RRIRSRPPRLPRPRPRPRIVPRP stands -0.174.
To RRIRMRPPRLPRPRPRPQDMPRP belongs -0.0638; to RRIRARPPRLPRPRPRPFVHPRP, -0.207; to RRIRGRPPRLPRPRPRPYTMPRP, -0.342.
Consider RRIRCRPPRLPRPRPRPQAKPRP, for which the “shrunken log2 fold change” value is 0.31.
Regarding RRIRVRPPRLPRPRPRPKEAPRP, the “shrunken log2 fold change” value is -0.0421.
Under RRIRERPPRLPRPRPRPAGGPRP stands 0.2.
As to RRIRFRPPRLPRPRPRPTANPRP, the “shrunken log2 fold change” value was -0.0711.
Under RRIRRRPPRLPRPRPRPPWWPRP stands 0.862; under RRIRMRPPRLPRPRPRPTAAPRP, 2.79; under RRIRQRPPRLPRPRPRPPFTPRP, -0.0512.
As to RRIRLRPPRLPRPRPRPFIYPRP, the “shrunken log2 fold change” value is -0.504.
Consider RRIRRRPPRLPRPRPRPCEIPRP, for which the “shrunken log2 fold change” value is 0.0684.
To RRIRSRPPRLPRPRPRPPALPRP belongs 0.453.
For the sequence RRIRCRPPRLPRPRPRPQWVPRP, the “shrunken log2 fold change” value was -0.103.
As for RRIRWRPPRLPRPRPRPILCPRP, the “shrunken log2 fold change” value is 0.00316.
Regarding RRIRWRPPRLPRPRPRPDRTPRP, the “shrunken log2 fold change” value stood at 0.179.
To RRIRPRPPRLPRPRPRPWGNPRP belongs -0.225; to RRIRGRPPRLPRPRPRPRISPRP, 0.353; to RRIRVRPPRLPRPRPRPAGTPRP, 0.146.
To RRIRQRPPRLPRPRPRPVIKPRP belongs -0.772; to RRIRNRPPRLPRPRPRPKSDPRP, -0.168.
Turning to RRIRRRPPRLPRPRPRPCPEPRP, the “shrunken log2 fold change” value came out at 0.0178.
Turning to RRIRIRPPRLPRPRPRPNIHPRP, the “shrunken log2 fold change” value was -0.936.
Regarding RRIRMRPPRLPRPRPRPEDDPRP, the “shrunken log2 fold change” value is -0.01.
Regarding RRIRQRPPRLPRPRPRPWYQPRP, the “shrunken log2 fold change” value was -0.000894.
Consider RRIRTRPPRLPRPRPRPHCCPRP, for which the “shrunken log2 fold change” value came to 0.142.
To RRIRKRPPRLPRPRPRPDPPPRP belongs 0.927.
Under RRIRGRPPRLPRPRPRPMWMPRP stands 0.118; under RRIRPRPPRLPRPRPRPEDEPRP, 0.242.
Consider RRIRIRPPRLPRPRPRPNACPRP, for which the “shrunken log2 fold change” value was found to be 0.00304.
For RRIRLRPPRLPRPRPRPTQHPRP, the “shrunken log2 fold change” value came to 0.218.
For RRIRGRPPRLPRPRPRPWRIPRP, the “shrunken log2 fold change” value was -0.15.
With RRIRARPPRLPRPRPRPNFIPRP, the “shrunken log2 fold change” value was -0.521.
As to RRIRDRPPRLPRPRPRPLEQPRP, the “shrunken log2 fold change” value was 0.57.
Turning to RRIRPRPPRLPRPRPRPDVQPRP, the “shrunken log2 fold change” value was 0.234.
For the sequence RRIRTRPPRLPRPRPRPPDNPRP, the “shrunken log2 fold change” value was -0.0234.
On to RRIRMRPPRLPRPRPRPVIDPRP, for which the “shrunken log2 fold change” value is 0.0403.
Regarding RRIRWRPPRLPRPRPRPGCQPRP, the “shrunken log2 fold change” value was -0.0225.
Consider RRIRKRPPRLPRPRPRPQRWPRP, for which the “shrunken log2 fold change” value was found to be 0.0222.
Turning to RRIRKRPPRLPRPRPRPWWWPRP, the “shrunken log2 fold change” value was -0.0108.
RRIRERPPRLPRPRPRPECIPRP: the “shrunken log2 fold change” value is 0.248.
Take RRIRPRPPRLPRPRPRPPWAPRP: the “shrunken log2 fold change” value came to 1.32.
To RRIRMRPPRLPRPRPRPFVAPRP belongs 0.113.
With RRIRMRPPRLPRPRPRPCTEPRP, the “shrunken log2 fold change” value was -0.0649.
On to RRIRLRPPRLPRPRPRPYFWPRP, for which the “shrunken log2 fold change” value is -0.0237.
RRIRARPPRLPRPRPRPATSPRP: the “shrunken log2 fold change” value was 0.461.
As to RRIRIRPPRLPRPRPRPCHWPRP, the “shrunken log2 fold change” value is -0.0328.
As to RRIRDRPPRLPRPRPRPVEHPRP, the “shrunken log2 fold change” value was 0.115.
To RRIRLRPPRLPRPRPRPNTTPRP belongs -0.463; to RRIRCRPPRLPRPRPRPMVEPRP, 0.237.
In the case of RRIRVRPPRLPRPRPRPGGLPRP, the “shrunken log2 fold change” value came to 0.00797.
As to RRIRERPPRLPRPRPRPTNQPRP, the “shrunken log2 fold change” value is -0.414.
On to RRIRRRPPRLPRPRPRPRQWPRP, for which the “shrunken log2 fold change” value came out at 0.169.
Under RRIRSRPPRLPRPRPRPMDYPRP stands 0.0691; under RRIRRRPPRLPRPRPRPDCPPRP, 0.4; under RRIRRRPPRLPRPRPRPAQIPRP, 0.494.
RRIRNRPPRLPRPRPRPAHWPRP: the “shrunken log2 fold change” value was determined as 0.142.
With RRIRHRPPRLPRPRPRPTWQPRP, the “shrunken log2 fold change” value was 0.572.
As to RRIRRRPPRLPRPRPRPYQPPRP, the “shrunken log2 fold change” value was -0.00931.
Under RRIRLRPPRLPRPRPRPQPNPRP stands -0.00696.
For the sequence RRIRKRPPRLPRPRPRPTFTPRP, the “shrunken log2 fold change” value turned out to be 0.186.
With RRIRNRPPRLPRPRPRPEKHPRP, the “shrunken log2 fold change” value is -0.287.
RRIRFRPPRLPRPRPRPRVYPRP: the “shrunken log2 fold change” value was -0.217.
